Positions count from the first letter of the chain named.

Test in all cases: cleavage_in_vitro
Series [1] deals with T1, AvrII-HF Y104F (Anabaena variabilis).
T1 sequence: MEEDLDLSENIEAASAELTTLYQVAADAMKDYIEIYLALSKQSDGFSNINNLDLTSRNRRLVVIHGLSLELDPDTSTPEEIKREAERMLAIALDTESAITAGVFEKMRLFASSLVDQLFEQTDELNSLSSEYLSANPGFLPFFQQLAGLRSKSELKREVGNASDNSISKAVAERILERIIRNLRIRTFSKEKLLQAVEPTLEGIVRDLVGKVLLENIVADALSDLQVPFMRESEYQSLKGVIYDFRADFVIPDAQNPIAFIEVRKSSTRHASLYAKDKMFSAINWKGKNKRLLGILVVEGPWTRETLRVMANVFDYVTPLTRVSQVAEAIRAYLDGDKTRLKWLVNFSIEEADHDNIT
As to conditions: NEB4, 37 C, Mg2+.

For series [2], the system named is T2, AvrII (Anabaena variabilis).
T2 sequence: T1 sequence with F104Y
To be noted: NEB4, 37 C, Mg2+.

The target in series [3] is T3, SalI-HF R107A (Streptomyces albus G) (UniProt Q53608).
T3 sequence: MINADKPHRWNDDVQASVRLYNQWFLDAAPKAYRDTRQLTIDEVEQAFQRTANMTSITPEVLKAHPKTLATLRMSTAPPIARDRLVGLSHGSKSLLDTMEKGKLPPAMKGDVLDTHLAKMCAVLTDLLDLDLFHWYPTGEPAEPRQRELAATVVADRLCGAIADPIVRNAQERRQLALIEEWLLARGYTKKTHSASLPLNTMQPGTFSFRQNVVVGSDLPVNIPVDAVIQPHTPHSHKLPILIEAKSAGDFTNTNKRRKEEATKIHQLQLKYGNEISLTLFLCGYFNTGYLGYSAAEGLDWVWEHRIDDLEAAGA
As to conditions: NEB4, 37 C, Mg2+.

Series [4] concerns the target T4, SalI (Streptomyces albus G) (UniProt Q53608).
T4 sequence: T3 sequence with A107R
To be noted: NEB4, 37 C, Mg2+.

In series [5] the target is T5, PvuII-HF T46G (Proteus vulgaris) (UniProt P23657).
T5 sequence: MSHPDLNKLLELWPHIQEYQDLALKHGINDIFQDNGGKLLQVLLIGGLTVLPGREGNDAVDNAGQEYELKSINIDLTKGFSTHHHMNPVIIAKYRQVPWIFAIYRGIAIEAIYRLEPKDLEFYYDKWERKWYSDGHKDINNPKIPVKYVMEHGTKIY
To be noted: NEB4, 37 C, Mg2+.

For series [6], the system named is T6, BspQI-HF K279P/R388F (Bacillus sphaericus).
T6 sequence: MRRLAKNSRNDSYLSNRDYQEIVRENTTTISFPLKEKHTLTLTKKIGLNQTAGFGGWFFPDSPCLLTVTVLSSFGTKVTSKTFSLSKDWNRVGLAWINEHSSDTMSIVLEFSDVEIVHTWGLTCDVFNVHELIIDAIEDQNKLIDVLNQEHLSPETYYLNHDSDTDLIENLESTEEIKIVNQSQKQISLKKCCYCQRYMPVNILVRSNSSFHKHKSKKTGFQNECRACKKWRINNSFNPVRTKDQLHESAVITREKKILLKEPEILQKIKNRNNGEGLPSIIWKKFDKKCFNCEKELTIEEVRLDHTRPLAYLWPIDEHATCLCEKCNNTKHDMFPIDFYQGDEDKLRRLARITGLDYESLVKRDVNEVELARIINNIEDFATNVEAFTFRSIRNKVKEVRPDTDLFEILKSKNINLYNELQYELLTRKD
To be noted: NEB4, 50 C, Mg2+.

For the substance T7 DNA, the activity (fidelity index) was more than 1000 in series [1] and 32 in series [2]. For lambda DNA HindIII digest, the activity (fidelity index) in series [3] was more than 32000; in series [4], 1. pBR322 had an activity (fidelity index) in series [5] of 500.

On to pUC19, for which, in series [6], the activity (fidelity index) was more than 4000.

The record behind these values is patent publication US20130115677.
